Measured values published in PMC7430637 (2020).

Legend:
recombinant mUHRF1 V1 [1] = target: T1, recombinant mUHRF1 V1 (mouse, UniProt Q8VDF2 1-782); test: MST
T1 chain: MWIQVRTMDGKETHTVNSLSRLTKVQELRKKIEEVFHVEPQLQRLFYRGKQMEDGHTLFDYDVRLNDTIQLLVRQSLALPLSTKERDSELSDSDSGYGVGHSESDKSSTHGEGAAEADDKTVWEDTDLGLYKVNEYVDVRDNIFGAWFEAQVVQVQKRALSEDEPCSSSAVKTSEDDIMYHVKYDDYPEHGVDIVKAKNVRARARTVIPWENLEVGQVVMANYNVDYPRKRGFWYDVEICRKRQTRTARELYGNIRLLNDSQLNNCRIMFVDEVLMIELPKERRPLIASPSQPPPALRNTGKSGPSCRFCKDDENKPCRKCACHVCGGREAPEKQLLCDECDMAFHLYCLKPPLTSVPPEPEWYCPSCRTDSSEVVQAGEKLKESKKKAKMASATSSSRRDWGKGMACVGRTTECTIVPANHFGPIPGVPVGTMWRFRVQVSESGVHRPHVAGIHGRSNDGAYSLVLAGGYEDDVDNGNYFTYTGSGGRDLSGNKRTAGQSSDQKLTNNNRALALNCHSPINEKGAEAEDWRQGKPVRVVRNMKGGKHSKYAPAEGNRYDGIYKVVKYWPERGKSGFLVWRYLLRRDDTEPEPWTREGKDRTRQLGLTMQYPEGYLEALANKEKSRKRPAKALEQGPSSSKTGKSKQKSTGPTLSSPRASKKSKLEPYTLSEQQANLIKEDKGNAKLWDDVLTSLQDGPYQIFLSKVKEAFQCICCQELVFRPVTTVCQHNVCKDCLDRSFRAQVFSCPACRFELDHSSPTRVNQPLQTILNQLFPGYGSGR

recombinant mUHRF1 V2 [2] = target: T2, recombinant mUHRF1 V2 (mouse); test: MST
T2 chain: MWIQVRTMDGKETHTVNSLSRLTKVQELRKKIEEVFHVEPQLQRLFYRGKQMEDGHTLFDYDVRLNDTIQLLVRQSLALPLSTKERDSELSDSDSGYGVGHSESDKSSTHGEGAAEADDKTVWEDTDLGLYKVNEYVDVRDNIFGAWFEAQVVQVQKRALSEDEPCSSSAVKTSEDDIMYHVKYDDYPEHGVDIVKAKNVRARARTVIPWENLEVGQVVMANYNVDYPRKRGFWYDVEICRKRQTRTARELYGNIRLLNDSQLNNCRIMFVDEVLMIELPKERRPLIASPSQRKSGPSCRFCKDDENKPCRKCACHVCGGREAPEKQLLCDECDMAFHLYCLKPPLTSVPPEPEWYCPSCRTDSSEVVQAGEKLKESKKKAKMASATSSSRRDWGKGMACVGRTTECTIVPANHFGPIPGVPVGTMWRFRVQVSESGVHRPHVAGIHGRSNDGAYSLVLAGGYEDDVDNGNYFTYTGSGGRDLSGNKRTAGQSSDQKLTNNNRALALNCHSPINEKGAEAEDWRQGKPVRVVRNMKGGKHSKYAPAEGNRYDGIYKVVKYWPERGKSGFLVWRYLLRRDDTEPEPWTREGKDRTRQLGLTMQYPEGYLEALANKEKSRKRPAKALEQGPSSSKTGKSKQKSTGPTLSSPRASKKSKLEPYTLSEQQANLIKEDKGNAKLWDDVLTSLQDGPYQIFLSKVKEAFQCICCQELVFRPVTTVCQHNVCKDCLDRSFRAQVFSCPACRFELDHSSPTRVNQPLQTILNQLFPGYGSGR

recombinant hUHRF1 [3] = target: T3, recombinant hUHRF1 (human, UniProt Q96T88-1 1-793); test: MST
T3 chain: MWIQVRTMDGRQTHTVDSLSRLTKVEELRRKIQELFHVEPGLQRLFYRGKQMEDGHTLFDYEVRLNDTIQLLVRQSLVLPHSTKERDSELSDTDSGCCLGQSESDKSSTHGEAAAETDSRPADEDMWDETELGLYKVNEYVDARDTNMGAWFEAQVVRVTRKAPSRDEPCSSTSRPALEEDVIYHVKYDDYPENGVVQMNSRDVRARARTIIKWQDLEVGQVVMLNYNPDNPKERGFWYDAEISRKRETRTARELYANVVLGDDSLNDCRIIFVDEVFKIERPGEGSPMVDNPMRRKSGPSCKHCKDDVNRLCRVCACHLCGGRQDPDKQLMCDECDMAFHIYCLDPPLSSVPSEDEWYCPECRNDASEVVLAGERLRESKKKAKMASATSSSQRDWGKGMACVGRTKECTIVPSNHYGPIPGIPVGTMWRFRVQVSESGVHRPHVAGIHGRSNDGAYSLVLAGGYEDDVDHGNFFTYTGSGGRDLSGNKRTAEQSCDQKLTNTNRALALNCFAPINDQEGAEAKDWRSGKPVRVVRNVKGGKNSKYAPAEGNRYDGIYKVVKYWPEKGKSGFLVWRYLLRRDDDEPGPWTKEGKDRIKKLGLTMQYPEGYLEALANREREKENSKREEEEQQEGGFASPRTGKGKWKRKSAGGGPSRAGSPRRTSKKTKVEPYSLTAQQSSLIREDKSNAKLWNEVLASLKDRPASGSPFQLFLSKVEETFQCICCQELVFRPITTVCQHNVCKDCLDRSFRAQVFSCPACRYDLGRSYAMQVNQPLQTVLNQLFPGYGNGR

recombinant mUHRF1 V1 [4] = target: T1, recombinant mUHRF1 V1; test: MST; + 100-fold molar excess PI5P
recombinant mUHRF1 V2 [5] = target: T2, recombinant mUHRF1 V2; test: MST; + 100-fold molar excess PI5P
recombinant hUHRF1 [6] = target: T3, recombinant hUHRF1; test: MST; + 100-fold molar excess PI5P

- Kd (recombinant mUHRF1 V1 [1]): 1400 nM
- Kd (recombinant mUHRF1 V2 [2]): 4000 nM
- Kd (recombinant hUHRF1 [3]): 1500 nM
- Kd (recombinant mUHRF1 V1 [4]): 2600 nM
- Kd (recombinant mUHRF1 V2 [5]): 8100 nM
- Kd (recombinant hUHRF1 [6]): 80 nM
Binder: ARTKQTARKSTGGKA (trimethyl-lysine at K9) [H3K9me3 peptide (titrated in MST)]
